Experiments:
[1] = Aminoacylation reaction, simplified Lloyd's method, inorganic phosphate detected with Biomol green; assay type: biochemical; set-up: key: ***: the reaction could be detected strongly at 25 nM; **: strongly at 250 nM; *: weakly at 250 nM; the activity is high in the order of *** > ** > * > —; conditions: Table 3; 3-iodotyrosine 1 mM; 37° C. for 4 min
Experimental: In the first method, Lloyd's method (Nucleic Acids Research, 23:2886-2892, 1995) where inorganic phosphate produced by pyrophosphatase-drived hydrolysis of pyrophosphate which was one of the reaction products of the aminoacylation reactions was quantified was simplified, and the inorganic phosphate was detected using Biomol green (Funakoshi) to carry out the measurement of the aminoacylation reaction.
Amino acid concentrations were 200 μM and 1 mM for tyrosine and 3-iodotyrosine, respectively.
The method where the aminoacylation reaction is measured by quantifying inorganic phosphate produced by pyrophosphatase-drived hydrolysis of pyrophosphate which is one of reaction products of the aminoacylation has been described by Lloyd et al. (Nucleic Acids Research, 23:2886-2892, 1995). In one method of the invention, this method was simplified and the aminoacylation reaction was measured by the detection of inorganic phosphate using Biomol green (Funakoshi). Each enzyme obtained was incubated with 0.05 ml of the buffer B containing 1 mM ATP (Seikagaku Corporation), 30 μM purified crude tyrosyl-tRNA, and 100 μM tyrosine or 0.5 mM 3-iodotyrosine at 37° C. for one hour. To stop the reaction, 0.1 ml of Bio mol green was added. Absorbance of its supernatant was measured at 630 nm.

[2] = tested on: wheat germ cell-free translation system; test: Amber suppression in wheat germ cell-free protein synthesis system (c-H-Ras, 32nd codon amber); assay type: biochemical
From the text: Production of the protein containing iodotyrosine was attempted by the reaction by a batch method in a wheat germ cell-free protein synthesis system using the resultant VC and an amber suppressor tRNA derived from tyrosine tRNA of E. coli. A short chain type of c-H-Ras added His-tag at the C-terminus via a spacer sequence (Milburn et al., Science 247:939-45, 1990) was used as the target protein. In translation where the template was mRNA made from a construction where the 32nd codon of this protein was replaced by the amber codon, the production of the protein in full length was dependent on coexistence of both TyrRS and the suppressor tRNA (FIG. 2). This proves that the suppressor tRNA used is scarcely aminoacylated by the endogenous aminoacyl-tRNA synthetase in the wheat germs. A synthetic quantity by the amber suppression was 30 to 40% of that of a control with no amber codon. In order to increase the synthetic quantity of the protein, the reaction by the suppression was carried out for 3 days using a dialysis method. […]
The translation reaction was carried out by further adding iodotyrosine at a final concentration of 0.6 mM in addition to the condition of the kit. […] Using an image analyzer FLA-2000 (Fujifilm, Tokyo, Japan), counts of RI of bands on the gel were quantified, or protein bands stained using Cypro-tangerine protein gel stain (Molecular probes) on the gel were quantified.

B1: VC: E. coli TyrRS double variant: position 37 Valine, position 195 Cysteine (protein, UniProt P0AGJ9 2-424, looked up, variant Y37V Q195C)
Tyrosine--tRNA ligase: ASSNLIKQLQERGLVAQVTDEEALAERLAQGPIALVCGFDPTADSLHLGHLVPLLCLKRFQQAGHKPVALVGGATGLIGDPSFKAAERKLNTEETVQEWVDKIRKQVAPFLDFDCGENSAIAANNYDWFGNMNVLTFLRDIGKHFSVNQMINKEAVKQRLNREDQGISFTEFSYNLLQGYDFACLNKQYGVVLCIGGSDQWGNITSGIDLTRRLHQNQVFGLTVPLITKADGTKFGKTEGGAVWLDPKKTSPYKFYQFWINTADADVYRFLKFFTFMSIEEINALEEEDKNSGKAPRAQYVLAEQVTRLVHGEEGLQAAKRITECLFSGSLSALSEADFEQLAQDGVPMVEMEKGADLMQALVDSELQPSRGQARKTIASNAITINGEKQSDPEYFFKEEDRLFGRFTLLRRGKKNYCLICWK
Aminoacylation activity, 3-iodotyrosine [1]: **
amber suppression (full-length translation product, SDS-PAGE) ([2]; FIG. 2, 14C-leucine labeled products): amber suppression was observed only when both TyrRS-VC variant and suppressor tRNA were present
quantity of the production of protein ([2]; dialysis method, 3 days): ≥ 0.1 mg per ml of reaction solution

Reference: patent publication US7393670B2, “Tyrosyl-tRNA synthetase variants” (Japan Science and Technology Agency, priority 2001, dated 2008)
